In patent publication US20240116985A1 (published 2024):
Starred links: 1 amine or outer side, 2 acyl side, 3 side chain; linkers in the order of their positions; H or OH if unused. Positions of bridges follow the written chain, without caps; N, C: chain ends. Non-standard residues stand in square brackets, D forms with d. Primed or numbered codes have the meaning given here. *: point of attachment. PyrS2″ = (S)-3-amino-1-((pent-4-en-1-yloxy)carbonyl)pyrrolidine-3-carboxylic acid (stapling residue), C=CCCCOC(=O)N1CC[C@@](N[*:1])(C(=O)[*:2])C1; PyrS3″ = (S)-3-amino-1-((hex-5-en-1-yloxy)carbonyl)pyrrolidine-3-carboxylic acid (stapling residue), C=CCCCCOC(=O)N1CC[C@@](N[*:1])(C(=O)[*:2])C1; PyrS2 = (S)-3-amino-1-((pent-4-en-1-yloxy)carbonyl)pyrrolidine-3-carboxylic acid, C=CCCCOC(=O)N1CC[C@@](N[*:1])(C(=O)[*:2])C1; PyrS3 = (S)-3-amino-1-((hex-5-en-1-yloxy)carbonyl)pyrrolidine-3-carboxylic acid, C=CCCCCOC(=O)N1CC[C@@](N[*:1])(C(=O)[*:2])C1; B5(7) = 2-amino-2-(pent-4-en-1-yl)hept-6-enoic acid, two olefinic side chains, C=CCCCC(CCCC=C)(N[*:1])C(=O)[*:2]; B5(3) = 2,2-bis(4-pentenyl)glycine (stitching residue), C=CCCCC(CCCC=C)(N[*:1])C(=O)[*:2]; MeMorphBz = 4-(morpholinomethyl)benzoyl on Lys side chain, O=C(c1ccc(CN2CCOCC2)cc1)*; B5 = 2-amino-2-(pent-4-en-1-yl)hept-6-enoic acid, C=CCCCC(CCCC=C)(N[*:1])C(=O)[*:2]; Bta = N[C@@H](Cc1csc2ccccc12)C(=O)O; αAllylPro = C=CC[C@@]1(C(=O)O)CCCN1; tBuAla = CC(C)(C)C[C@H](N)C(=O)O; 3Thi = N[C@@H](Cc1ccsc1)C(=O)O; Octanoyl = CCCCCCCC(=O)*; Butyryl = CCCC(=O)*

target: T1, B-cat-Halo (beta-catenin HaloTag fusion expressed in HEK293 cells) (Homo sapiens (Human), UniProt P35222 1-781); assay: cell-based or functional assay
T1 sequence: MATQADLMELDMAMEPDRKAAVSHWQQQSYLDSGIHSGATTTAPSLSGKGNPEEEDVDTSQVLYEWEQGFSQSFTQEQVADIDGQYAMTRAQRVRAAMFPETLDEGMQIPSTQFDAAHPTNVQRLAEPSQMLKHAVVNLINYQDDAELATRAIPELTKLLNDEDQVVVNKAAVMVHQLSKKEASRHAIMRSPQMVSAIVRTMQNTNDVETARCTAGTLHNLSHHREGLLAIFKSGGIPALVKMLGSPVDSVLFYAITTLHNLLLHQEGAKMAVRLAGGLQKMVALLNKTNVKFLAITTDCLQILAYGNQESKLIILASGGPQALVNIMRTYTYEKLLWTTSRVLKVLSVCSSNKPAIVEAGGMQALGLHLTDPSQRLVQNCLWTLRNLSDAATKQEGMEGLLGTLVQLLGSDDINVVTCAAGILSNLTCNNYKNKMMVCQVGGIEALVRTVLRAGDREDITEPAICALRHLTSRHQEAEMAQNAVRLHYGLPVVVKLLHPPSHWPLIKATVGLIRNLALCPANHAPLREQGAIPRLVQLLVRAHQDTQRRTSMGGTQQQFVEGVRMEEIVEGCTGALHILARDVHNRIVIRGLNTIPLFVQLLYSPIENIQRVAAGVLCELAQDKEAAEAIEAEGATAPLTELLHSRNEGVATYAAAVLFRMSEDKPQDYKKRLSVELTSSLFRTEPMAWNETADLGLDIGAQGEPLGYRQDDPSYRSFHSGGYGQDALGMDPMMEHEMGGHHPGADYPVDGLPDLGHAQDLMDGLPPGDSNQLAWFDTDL

| Binder | NanoBRET % inh @ 10 uM | NanoBRET IC50 | NanoBRET Abs IC50 |
| --- | --- | --- | --- |
| Ac-[αAllylPro]D[tBuAla][B5]DDAAFN[PyrS2″][3Thi][Bta]HA-NH2 (staple 1-4, 4-11) [I-820] | 30.8% |  |  |
| Ac-[αAllylPro]D[tBuAla][B5]DDAAFN[PyrS2″][3Thi][Bta]QA-NH2 (staple 1-4, 4-11) [I-819] | 37.8% |  |  |
| Ac-[αAllylPro]D[tBuAla][B5]DDAAFN[PyrS2″][3Thi][Bta]T-NH2 (staple 1-4, 4-11) [I-814] |  | 12.7 µM |  |
| Ac-[αAllylPro]D[tBuAla][B5]DDAAFN[PyrS2″][3Thi][Bta][dT]-NH2 (staple 1-4, 4-11) [I-817] | 45% | 6.8 µM |  |
| Ac-[αAllylPro]D[tBuAla][B5(3)]DDAAFN[PyrS3″][3Thi][Bta]N[dA]-NH2 (staple 1-4, 4-11) [I-835] | 27.6% |  |  |
| Ac-[αAllylPro]D[tBuAla][B5]DDAAFN[PyrS2″][3Thi][Bta][dN]-NH2 (staple 1-4, 4-11) [I-818] | 31.4% |  |  |
| Ac-[αAllylPro]D[tBuAla][B5(3)]DNAAFN[PyrS2″][3Thi][Bta]Q-NH2 (staple 1-4, 4-11) [I-836] |  |  | 16.9 µM |
| Ac-[αAllylPro]D[tBuAla][B5]DDAAFN[PyrS2″][3Thi][Bta]Q[dA]-NH2 (staple 1-4, 4-11) [I-822] | 53% | 7.7 µM |  |
| Ac-[αAllylPro]D[tBuAla][B5(3)]DDAAFT[PyrS2″][3Thi][Bta]Q-NH2 (staple 1-4, 4-11) [I-809] |  | 11.7 µM |  |
| Ac-[αAllylPro]D[tBuAla][B5(7)]DDAAFN[PyrS2][3Thi][Bta]H[dA]-NH2 (staple 1-4, 4-11) [I-823] | 37.5% | > 10 µM |  |
| Ac-[αAllylPro]D[tBuAla][B5]DDAAFN[PyrS2″][3Thi][Bta]S-NH2 (staple 1-4, 4-11) [I-815] |  | 11.8 µM |  |
| Ac-[αAllylPro]D[tBuAla][B5(7)]DDAAFN[PyrS3][3Thi][Bta]Q[dA]-NH2 (staple 1-4, 4-11) [I-831] | 32.4% |  |  |

target: T2, B-cat-Halo (beta-catenin HaloTag NanoBRET construct expressed in HEK293 cells) (UniProt P35222 1-781); assay: cell-based or functional assay
T2 sequence (looked up): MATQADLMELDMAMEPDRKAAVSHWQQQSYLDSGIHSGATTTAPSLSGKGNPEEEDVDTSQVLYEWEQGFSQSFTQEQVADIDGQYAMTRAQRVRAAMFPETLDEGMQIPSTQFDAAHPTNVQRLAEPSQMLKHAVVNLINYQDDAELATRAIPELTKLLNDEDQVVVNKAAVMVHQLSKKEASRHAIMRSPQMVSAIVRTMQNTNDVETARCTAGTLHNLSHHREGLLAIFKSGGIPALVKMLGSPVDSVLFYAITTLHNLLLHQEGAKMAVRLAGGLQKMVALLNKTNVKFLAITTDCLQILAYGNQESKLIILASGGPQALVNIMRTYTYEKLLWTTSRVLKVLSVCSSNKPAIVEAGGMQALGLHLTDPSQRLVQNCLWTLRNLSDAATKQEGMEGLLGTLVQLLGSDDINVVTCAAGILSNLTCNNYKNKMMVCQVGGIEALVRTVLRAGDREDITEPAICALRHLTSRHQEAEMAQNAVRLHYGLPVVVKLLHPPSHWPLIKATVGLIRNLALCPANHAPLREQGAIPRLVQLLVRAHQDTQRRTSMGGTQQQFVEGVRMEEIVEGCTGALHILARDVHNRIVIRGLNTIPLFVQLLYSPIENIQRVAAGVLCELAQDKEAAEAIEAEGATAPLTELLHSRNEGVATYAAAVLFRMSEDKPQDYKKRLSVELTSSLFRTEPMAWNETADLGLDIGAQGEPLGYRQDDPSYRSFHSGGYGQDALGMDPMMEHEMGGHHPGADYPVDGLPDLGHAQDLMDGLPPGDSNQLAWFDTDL

| Binder | NanoBRET Abs IC50 |
| --- | --- |
| Ac-[αAllylPro]D[tBuAla][B5(3)]DDAK(Octanoyl)FN[PyrS2][3Thi][Bta]Q-NH2 (staple 1-4, 4-11; not fully specified) [I-898] | > 20 µM |
| Ac-[αAllylPro]D[tBuAla][B5(3)]DDAK(Butyryl)FN[PyrS2][3Thi][Bta]Q-NH2 (staple 1-4, 4-11) [I-897] | > 20 µM |
| Ac-[αAllylPro]D[tBuAla][B5(3)]DDAK(MeMorphBz)FN[PyrS2″][3Thi][Bta]Q-NH2 (staple 1-4, 4-11) [I-890] | > 20 µM |
| Ac-[αAllylPro]D[tBuAla][B5(3)]DDAK(mPEG2)FN[PyrS2][3Thi][Bta]Q-NH2 (staple 1-4, 4-11; not fully specified) [I-892] | > 20 µM |
